Measured values taken from patent US20230190885A1, “PLACENTAL ALKALINE PHOSPHATASE TO PROMOTE SCAR-FREE HEALING OF ACNE VULGARIS AND OTHER INFLAMMATORY SKIN LESIONS CAUSED BY MICROBIAL INFECTIONS” (priority 2021, published 2023).

How the values were obtained:
acne lesion = assay: Topical treatment of acne lesions in human subjects; assay type: in vivo; settings: for visible effect on acne covered area: person, before PLAP treatment
From the text: Highly purified placenta derived PLAP, or essentially pure recombinant PLAP, or an essentially pure active derivative thereof, is dispersed in a suitable carrier and gently massaged onto the acne lesion. The carrier used in the invention is Vaselinum cholesterinatum, but it may be replaced by Vaselinum flavum or Vaselinum album. Vaselinum cholesterinatum consists of about 1.5 wt.-% cholesterol, about 5.0 wt.-% cerae lanae, and about 93.5 wt.-% Vaselinum flavum. In this invention, for a preparation containing PLAP or rPLAP in a carrier the term “PLAP cream” is used.
Other appropriate forms of PLAP containing compositions may contain other suitable carriers in the forms of gels, lotions, unguents, emollients, colloidal dispersions, suspensions, emulsions, oils, sprays, liposomes, non-ionic detergents, foams, mousses, and the like as used in the skin care industry with no damaging effects on the skin. Preferably, the chosen carrier would enable PLAP to exert its antiacne effect or at least would not reduce it. In addition, the carrier should not be comedogenic and should not inhibit interaction of PLAP with the acne lesion. In the preparation of the carrier-PLAP mixture, PLAP is first dissolved in distilled water or a suitable buffer and then mixed with the carrier. The PLAP cream contains highly purified PLAP or rPLAP, in the amount of 0.1 to 10 mg per one gram carrier gently massaged onto the area of acne lesion. The amount of PLAP depends on the severity of acne. In cases of light, moderate and severe acnes the recommended amount of PLAP per 1 gram carrier is 0.1 to 0.5 mg, 0.6 to 2 mg, and 2.1 to 10 mg PLAP, respectively. Before each daily treatment the acne lesion needs to be cleaned with a facial cleanser as recommended by the manufacturer. The length of the daily treatments is typically for about 3 weeks, but it may be extended until the lesion is healed.
Complete recovery of the original skin texture required about 5 weeks with no additional treatments needed between 3 to 5 weeks.
Complete recovery of the original skin texture required about 6 weeks with no additional treatments needed between 3 to 6 weeks.
Complete recovery of the original skin texture required about 8 weeks with no additional treatments needed between 4 to 8 weeks.
This idea was tested with 16-17-year-old males who started to develop acne during a 2 to 4-day period. Treatments (2-mg PLAP in 1-gram Vaselinum cholesterinatum) were applied at bedtime only once.

HaCaT cells [1] = assay: MTT assay, proliferation/viability of HaCaT keratinocytes; assay type: cell-based, human; settings: 72 hours; for Viability of Cells (Absorption: A540) HaCaT cells: MTT, 200 nM PLAP or rPLAP, 100 µM ATP, mean ± S.D. of eight wells
From the text: The immortalized human HaCaT keratinocyte cell line, isolated in 1988 [Boukamp, P., Petrussevska, R.T., Breitkreutz, D., Hornung, J., and Markham, A., “Normal keratinization in a spontaneously immortalized aneuploid human keratinocyte cell line,” J. Cell. Biol., 106, 761-771, 1988], was provided for these studies by the Institute of Dermatology, Szeged University, , Szeged, Hungary). HaCaT cells were maintained in 10% fetal bovine serum (FBS) and 1% penicillin-streptomycin -containing Dulbecco’s modified Eagle’s medium (DMEM) up to 80% confluency in an incubator (5% CO2, 37° C.). Cells were plated into 96 well plates at 20% confluency and incubated for 72 hours in an incubator (5% CO2, 37° C.) with 200 nM purified PLAP or rPLAP in the absence or presence of 100 µM ATP.
(§1) The relative changes in the number of viable cells were determined by the MTT assay. This colorimetric assay is based on the ability of living healthy cells (mostly the mitochondrial compartment), but not dead cells, to reduce 3-(4,5-dimethyl thizaol-2-yl)-[…] to a blue formazan product [Carmichael, J., De Graft, W.G., Gazdar, A.F., Minna, J.D. and Mitchell, J.B. Evaluation of tetrazolium-based semi-automated colorimetric assay: Assessment of chemosensitivity resting. Cancer Res. 47, 936-942, 1987] This technique is a widely used and accepted method to accurately determine the relative numbers of viable cells. For example, this is the official method used by the National Cancer Institute to screen anticancer drugs.
(§2) A MULTISKAN MS microplate reader purchased from Labsystems (Franklin, Massachusetts) was used to measure the formation of formazan as an increase in absorbance at a test wavelength of 540 nm and a reference wavelength of 690 nm. In the data analysis, data were expressed as mean values ± standard deviation (S.D.) of eight incubations (from eight wells) in one experiment. In each case, incubations were performed for 72 hours.

CCD 966 SK fibroblasts = assay: MTT assay, proliferation/viability of CCD 966 SK fibroblasts; assay type: cell-based, human; settings: 72 hours; for Viability of Cells (Absorption: A540) CCD 966 SK: MTT, 200 nM PLAP or rPLAP, 100 µM ATP, mean ± S.D. of eight wells
Procedure: CCD 966 SK fibroblasts, originally derived from a subject and purchased from American Type Culture Collection (Alexandria, Virginia), were at passage 5 when used. The fibroblasts were maintained and treated as described above for the HaCaT cells.
as §1, §2

shingles = assay: Treatment of shingles in human subjects; assay type: in vivo; settings: two subjects, recurrent painful shingles, oral, 4-times a day
Procedure: The PLAP cream can be used for the local treatment of Shingles or other skin lesions caused by reactivated HSV-1 or HSV-2 generally, but not always, along with treatment with a prescribed antiviral drug. The same carriers and additives may be used as described for the acne treatment, The recommended amount of PLAP per 1 gram carrier is 2.0 to 10.0 mg. Generally, the larger the lesion the more PLAP per 1 gram carrier is needed. As examples, if the area of the lesion is 10 cm^2 or smaller, 2 mg per 1 gram carrier is suitable. If the area of the lesion is larger than 10 cm^2 then, depending on the lesion’s size, the recommended concentration of PLAP is between 2.1 to 10.0 mg per 1 gram carrier. Local treatment of the lesion with PLAP cream is performed once daily along with oral administration of the prescribed antiviral drug (usually four-times a day). Local administration of the antiviral drug is not recommended. In case of shingles, when the lesion treated with placental alkaline phosphatase or an active derivative is smaller than 2.0 cm^2, the use of an antiviral drug is optional. In cases of skin lesions caused by HSV-1 or HSV-2, the use of an oral antiviral drug is optional regardless of the lesion’s size.
Two individuals (one person and one person) had recurrent painful shingles at 10-16 months intervals, usually lasting for 4-6 weeks without treatment, associated with pain lasting beyond 6 weeks that prevented them to get a good night sleep.
When a new recurrence of shingles occurred again, the same two subjects were co-treated with local PLAP cream (5 mg PLAP in 1-gram Vaselinum cholesterinatum) and oral acyclovir. The two subjects responded to this combination treatment similarly.
They started the treatment with acyclovir and PLAP cream on day 0. […] Complete healing of both subjects occurred by day 12 (the subject) and day 14 (the subject).
Two female individuals, had recurrent (practically yearly) moderate shingles (one had under the breast, the other had on the arm, both approximately the size of 1-2 cm^2) previously lasting for about 2-3 weeks. […]

CCD 966 SK cells = assay: [U-14C]ATP hydrolysis and adenosine formation in intact CCD 966 SK fibroblasts; assay type: cell-based, human; settings: 2 hours
Procedure: (§3) In these experiments, PLAP was incubated with human HaCaT cells and human 966 SK fibroblasts. The plasma membranes of both cell lines contain ectonucleotidases that hydrolyze ATP to result in the formation of adenosine. If PLAP binds ATP as reported earlier, it will compete with the ectonucleotidases for ATP. In this case, in the presence of PLAP the formation of adenosine, the final product of ATP hydrolysis, should be reduced. The experiment performed under this Example served to examine this possibility.
(§4) HaCaT and 966 SK cells were grown in 10% serum containing DMEM medium (0.1 ml) in 96-well plates to confluence. First, the medium was changed for serum-free medium. […] (0.1 mM) of [U-^14C] ATP (purchased from Amersham). Incubations in an incubator were performed for 2 hours. […] aliquots were withdrawn into small centrifuge tubes followed by the addition of 0.15 ml of chloroform methanol 2:1 mixture containing 1 mM adenosine (to help UV visualization and reduce cellular uptake of [U-^14C] Adenosine) to precipitate the proteins and eliminate lipids. After centrifugation, 5 µl aliquots of the lower phase were transferred to fluorescent PEI-cellulose (polyethyleneimine-impregnated cellulose) plates, and after drying the plates they were developed with water in a flat bottom chamber. After drying and visualizing the adenosine and nucleotide spots under UV (all nucleotides remained in the application spots), the respective areas were cut out, placed in scintillation vials, and radioactivity was measured in a liquid scintillation spectrometer. Data is the mean of three independent determinations (from three separate wells) ± S.D. in the same experiment.

HaCaT cells [2] = assay: [U-14C]ATP hydrolysis and adenosine formation in intact HaCaT cells; assay type: cell-based, human; settings: 2 hours
Procedure: as §3, §4

[3] = CCD 966 SK fibroblasts, agent alone
[4] = PLAP, 500 nM, 0.1 mM [U-14C]ATP, mean ± S.D. of three wells

With `O=C(OOC(=O)c1ccccc1)c1ccccc1` [benzoyl peroxide] the “visible effect on acne covered area” value (acne lesion; left side of face, as prescribed for 2 months) was “only small visible positive effects”, the “visible effect on acne covered area” value (acne lesion; left side of face, as prescribed for 3 months) was “only small visible positive effects” and the “visible effect on acne covered area” value (acne lesion; right side of face, as prescribed for 2 months) was “only small visible positive effects”. For the same molecule, the “visible effect on acne covered area” value (acne lesion; right side of face, as prescribed for 3 months) was “only small visible positive effects”.

With `Nc1ncnc2c1ncn2[C@@H]1O[C@H](COP(=O)(O)OP(=O)(O)OP(=O)(O)O)[C@@H](O)[C@H]1O` [ATP, adenosine 5′ triphosphate, reference compound] the “effect on proliferation (in words)” value (HaCaT cells [1]; HaCaT cells, agent alone) was “no effects”, the “Viability of Cells (Absorption: A540) HaCaT cells” value (HaCaT cells [1]) was 0.841±0.037 and the “effect on proliferation (in words)” value (CCD 966 SK fibroblasts; [3]) was “no effects”. For the same molecule, the “Viability of Cells (Absorption: A540) CCD 966 SK” value (CCD 966 SK fibroblasts) was 0.686±0.029.

With `Nc1nc2c(ncn2COCCO)c(=O)[nH]1` [acyclovir] the effect on pain (shingles) was “no significant effect on pain”, the “time of full healing of shingles” value (shingles) was “by the end of third week” and the remission of shingles (shingles; in 10-12 days) was 40-50%.

B1: PLAP: full length placental alkaline phosphatase, highly purified from commercial PLAP (Sigma-Aldrich) (protein, UniProt P05187 23-506, looked up)
Alkaline phosphatase, …: IIPVEEENPDFWNREAAEALGAAKKLQPAQTAAKNLIIFLGDGMGVSTVTAARILKGQKKDKLGPEIPLAMDRFPYVALSKTYNVDKHVPDSGATATAYLCGVKGNFQTIGLSAAARFNQCNTTRGNEVISVMNRAKKAGKSVGVVTTTRVQHASPAGTYAHTVNRNWYSDADVPASARQEGCQDIATQLISNMDIDVILGGGRKYMFRMGTPDPEYPDDYSQGGTRLDGKNLVQEWLAKRQGARYVWNRTELMQASLDPSVTHLMGLFEPGDMKYEIHRDSTLDPSLMEMTEAALRLLSRNPRGFFLFVEGGRIDHGHHESRAYRALTETIMFDDAIERAGQLTSEEDTLSLVTADHSHVFSFGGYPLRGSSIFGLAPGKARDRKAYTVLLYGNGPGYVLKDGARPDVTESESGSPEYRQQSAVPLDEETHAGEDVAVFARGPQAHLVHGVQEQTFIAHVMAFAACLEPYTACDLAPPAGTTD
For B1, the “time to complete healing of acne” value (acne lesion; 16-17-year-old males, acne developing during 2 to 4 days, 2-mg PLAP in 1-gram Vaselinum cholesterinatum, applied once at bedtime) was 2 to 5 days, the scar tissue formation (acne lesion; 16-17-year-old males, early acne, 2-mg PLAP in 1-gram carrier, applied once) was “without any scar tissue formation” and the “formation of radiolabeled adenosine (in words)” value (CCD 966 SK cells) was “dramatic reduction”. The “hydrolysis of ATP and related nucleotides (in words)” value (CCD 966 SK cells) was “greatly reduced the hydrolysis”, the “Total [U-14C] nucleotide” value (CCD 966 SK cells; [4]) was 1,653,949 ± 42,791 c.p.m./well and the “[U-14C] Adenosine” value (CCD 966 SK cells; [4]) was 34,019 ± 4,892 c.p.m./well. For the same molecule, the “formation of radiolabeled adenosine (in words)” value (HaCaT cells [2]) was “dramatic reduction”, the “hydrolysis of ATP and related nucleotides (in words)” value (HaCaT cells [2]) was “greatly reduced the hydrolysis” and the “Total [U-14C] nucleotide” value (HaCaT cells [2]; [4]) was 1,572,853 ± 33,737 c.p.m./well. For the same molecule, the “[U-14C] Adenosine” value (HaCaT cells [2]; [4]) was 71,048 ± 2,220 c.p.m./well, the “effect on proliferation (in words)” value (HaCaT cells [1]; HaCaT cells, agent alone) was “clearly stimulated proliferation” and the “Viability of Cells (Absorption: A540) HaCaT cells” value (HaCaT cells [1]) was 1.086± 0.047. The “effect on proliferation (in words)” value (HaCaT cells [1]; epidermal (HaCaT) cells, in the presence of ATP) was “inhibited the proliferation”, the “effect on proliferation (in words)” value (CCD 966 SK fibroblasts; [3]) was “clearly stimulated proliferation” and the “Viability of Cells (Absorption: A540) CCD 966 SK” value (CCD 966 SK fibroblasts) was 0.853±0.040. For the same molecule, the “effect on proliferation (in words)” value (CCD 966 SK fibroblasts; fibroblasts (CCD 966 SK), in the presence of ATP) was “inhibited the proliferation”.
